Source: patent publication US20240108738A1, “BICYCLIC PEPTIDE LIGANDS SPECIFIC FOR NK CELLS” (Bicycle Tx Limited, priority 2021, published 2024)
Numbered stars: 1 amine (or outer) side, 2 acyl side, 3 side chain; on linkers, the order of the positions; unused ones are H or OH. Bridge positions count the residues as written; N and C are the ends. Ends that are not written are not given here. * marks the point of attachment. TBMT = 2,4,6-tris(bromomethyl)-s-triazine, C(c1nc(C[*:2])nc(C[*:3])n1)[*:1]; Pent4ynoyl = C#CCCC(=O)*

B1: BCY13886 (peptide)
peptide: ACVGLEELGPCSDLCAK(Pent4ynoyl)-NH2
modifications: linker 2-11-15 via TBMT (inferred)
B2: BCY13883 (peptide)
peptide: ACRWSVEDPCGAWCAK(Pent4ynoyl)-NH2
modifications: linker 2-10-14 via TBMT (inferred)
B3: BCY18269 (peptide)
peptide: ACDLTTHNCAWGICA
modifications: not checked
B4: BCY18304 (peptide)
peptide: ACNLQAPCMLTGAVCA
modifications: not checked
B5: BCY19712 (peptide)
peptide: ACNLQAPCLHTGKVCA
modifications: not checked
B6: BCY19718 (peptide)
peptide: CDLTTHNCQWGICA
modifications: not checked
B7: BCY18316 (peptide)
peptide: ACNLQAPCMETGKVCA
modifications: not checked
B8: BCY15105 (peptide)
peptide: ACLLHDHCPNSHPEICA
modifications: not checked
B9: BCY15103 (peptide)
peptide: ACLLHDHCPNTHPKLCA
modifications: not checked
B10: BCY19713 (peptide)
peptide: ACNLQQACMQTGKVCA
modifications: not checked
B11: BCY19702 (peptide)
peptide: ACNLQAPCMVTGKVCA
modifications: not checked
B12: BCY15102 (peptide)
peptide: ACNLQNPCMKFPCA
modifications: not checked
B13: BCY18295 (peptide)
peptide: CNLQAPCMLTGKVC
modifications: not checked
B14: BCY19711 (peptide)
peptide: ACNLQAPCMHTGKVCA
modifications: not checked
B15: BCY18301 (peptide)
peptide: ACNLQAPCMATGKVCA
modifications: not checked
B16: BCY18277 (peptide)
peptide: ACDLQTHNCQWGICA
modifications: not checked
B17: BCY18302 (peptide)
peptide: ACNLQAPCMLAGKVCA
modifications: not checked
B18: BCY18265 (peptide)
peptide: ACDLATHNCQWGICA
modifications: not checked
B19: BCY15106 (peptide)
peptide: ACLLHDHCPNTHPIICA
modifications: not checked
B20: BCY18285 (peptide)
peptide: ACDLTTHNCVWGICA
modifications: not checked
B21: BCY15104 (peptide)
peptide: ACLLHEHCPNTHPKMCA
modifications: not checked
B22: BCY14454 (peptide)
peptide: ACNLQQACLHTGKVCA
modifications: not checked
B23: BCY19695 (peptide)
peptide: KCNLQAPCMLTGKVCA
modifications: not checked
B24: BCY19694 (peptide)
peptide: CNLQAPCMLTGKVCA
modifications: not checked
B25: BCY14457 (peptide)
peptide: ACLLHDHCPNTHPKMCA
modifications: not checked
B26: BCY18272 (peptide)
peptide: ACDLTTHNCQWGACA
modifications: not checked
B27: BCY18318 (peptide)
peptide: ACNLQAPCMYTGKVCA
modifications: not checked
B28: BCY14458 (peptide)
peptide: ACDLTTHNCIWGVCA
modifications: not checked
B29: BCY18299 (peptide)
peptide: ACNLQAACMLTGKVCA
modifications: not checked

Target: biotinylated human FcγRIII (CD16a), variant not stated (human) (UniProt P08637)
Assay: SPR Method A

Chain of biotinylated human FcγRIII (CD16a), variant not stated (human) (P08637 17-208, change not shown): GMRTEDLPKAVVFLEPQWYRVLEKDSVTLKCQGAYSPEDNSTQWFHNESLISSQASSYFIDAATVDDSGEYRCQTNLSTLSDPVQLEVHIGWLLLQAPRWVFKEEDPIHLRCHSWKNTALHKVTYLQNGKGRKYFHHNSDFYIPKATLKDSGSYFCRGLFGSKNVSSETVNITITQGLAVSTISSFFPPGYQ

B1 and B2 are within 1.5-fold of each other in Kd: 2200 nM for the first, 1800 nM for the second.

Target: Human NKp46 Fc tag (Acro Biosystems, NC1-H5257) (human), O76036
Assay: SPR Method 1 and/or 2

Chain of Human NKp46 Fc tag (Acro Biosystems, NC1-H5257) (human), O76036 (O76036 22-255 limits assumed): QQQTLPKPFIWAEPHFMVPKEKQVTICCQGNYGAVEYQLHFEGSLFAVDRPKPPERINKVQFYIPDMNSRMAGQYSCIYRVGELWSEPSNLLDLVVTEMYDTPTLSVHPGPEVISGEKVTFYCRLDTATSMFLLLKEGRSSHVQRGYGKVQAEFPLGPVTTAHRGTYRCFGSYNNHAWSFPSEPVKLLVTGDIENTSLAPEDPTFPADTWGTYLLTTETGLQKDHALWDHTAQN

B3 and B4 are within 1.5-fold of each other in Kd: 1640 nM for the first, 1530 nM for the second.

Compared with B5, B6 is 2.8-fold lower in Kd: 3140 nM for the first, 1110 nM for the second. The second binds more tightly here.

Compared with B7, B8 is 2.5-fold higher in Kd: 1510 nM for the first, 3730 nM for the second.

B9 and B10 are within 1.5-fold of each other in Kd: 1660 nM for the first, 1830 nM for the second.

Going from B11 to B12, the Kd falls from 2680 nM to 1090 nM (2.5-fold). The second binds more tightly here.

Compared with B13, B14 is 2.3-fold lower in Kd: 6410 nM for the first, 2750 nM for the second. The second binds more tightly here.

Compared with B15, B16 is 2.7-fold lower in Kd: 4030 nM for the first, 1520 nM for the second.

Going from B17 to B18, the Kd falls from 5380 nM to 1480 nM (3.6-fold). The second binds more tightly here.

B19 and B20 are within 1.5-fold of each other in Kd: 2670 nM for the first, 3760 nM for the second.

B21 and B22 are within 1.5-fold of each other in Kd: 2880 nM for the first, 2760 nM for the second.

B23 and B24 are within 1.5-fold of each other in Kd: 2380 nM for the first, 2510 nM for the second.

B25 and B26 are within 1.5-fold of each other in Kd: 2270 nM for the first, 3190 nM for the second.

Compared with B27, B28 is 1.5-fold lower in Kd: 1920 nM for the first, 1260 nM for the second. The second binds more tightly here.

For B29, the Kd was 1800 nM.
